Results reported in paper PMC12256043, “Integrated platform for structural and functional analysis of terpene synthases of Cannabis sativa” (PeerJ, 2025).

Columns and labels:
Assay in all cases: malachite green assay coupled to inorganic pyrophosphatase
Conditions in all cases: pH 7.5, 5 mM MgCl2, 37 °C, 30 min
CsTPS12PK = biological target: T1, CsTPS12PK (Cannabis sativa, UniProt A0A1V0QSF4); assay type: biochemical
T1 construct: gene TPS33PK; printed as CsTPS12PK/CsTPS33PK; E. coli; monomer
Source text: malachite green assay coupled to inorganic pyrophosphatase on CsTPS12PK

CsTPS13PK = biological target: T2, CsTPS13PK (Cannabis sativa, UniProt A0A1V0QSG1); assay type: biochemical
T2 construct: gene TPS13PK; E. coli BL21(DE3); monomer
T2 sequence (A0A1V0QSG1 41-640): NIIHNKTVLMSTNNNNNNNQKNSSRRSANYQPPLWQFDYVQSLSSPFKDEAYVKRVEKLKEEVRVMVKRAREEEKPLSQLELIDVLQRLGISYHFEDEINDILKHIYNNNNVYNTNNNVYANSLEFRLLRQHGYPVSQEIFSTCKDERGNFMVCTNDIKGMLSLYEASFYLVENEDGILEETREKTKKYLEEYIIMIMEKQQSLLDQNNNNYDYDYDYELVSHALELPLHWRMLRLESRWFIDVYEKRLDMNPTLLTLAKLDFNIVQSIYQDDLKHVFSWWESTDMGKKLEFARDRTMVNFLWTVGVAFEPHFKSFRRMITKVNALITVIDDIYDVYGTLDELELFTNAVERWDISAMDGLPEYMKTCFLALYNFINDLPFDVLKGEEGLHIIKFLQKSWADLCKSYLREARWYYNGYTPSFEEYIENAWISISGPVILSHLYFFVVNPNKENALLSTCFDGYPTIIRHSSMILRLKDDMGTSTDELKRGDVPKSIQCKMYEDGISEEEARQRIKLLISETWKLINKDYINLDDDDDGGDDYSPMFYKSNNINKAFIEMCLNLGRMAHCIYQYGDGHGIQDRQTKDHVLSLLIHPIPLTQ
Source text: malachite green assay coupled to inorganic pyrophosphatase on CsTPS13PK

[1] = substrate: CC(C)=CCC/C(C)=C/CC/C(C)=C/CO[P@@](=O)(O)OP(=O)(O)O; assay type: biochemical, Cannabis sativa
Source text: malachite green assay coupled to inorganic pyrophosphatase on CsTPS20CT

[2] = substrate: CC(C)=CCC/C(C)=C/COP(=O)(O)OP(=O)(O)O; assay type: biochemical, Cannabis sativa
Source text: malachite green assay coupled to inorganic pyrophosphatase on CsTPS3FN

[3] = substrate: CC(C)=CCC/C(C)=C/COP(=O)(O)OP(=O)(O)O; assay type: biochemical, Cannabis sativa; remark: listed apart in the source
Source text: malachite green assay coupled to inorganic pyrophosphatase on CsTPS1SK

[4] = substrate: CC(C)=CCC/C(C)=C/CC/C(C)=C/CO[P@@](=O)(O)OP(=O)(O)O; assay type: biochemical, Cannabis sativa; remark: listed apart in the source
Source text: malachite green assay coupled to inorganic pyrophosphatase on CsTPS16CC

[5] = substrate: CC(C)=CCC/C(C)=C/COP(=O)(O)OP(=O)(O)O; assay type: biochemical, Cannabis sativa; remark: listed apart in the source

T1 sequence (A0A1V0QSF4 34-615): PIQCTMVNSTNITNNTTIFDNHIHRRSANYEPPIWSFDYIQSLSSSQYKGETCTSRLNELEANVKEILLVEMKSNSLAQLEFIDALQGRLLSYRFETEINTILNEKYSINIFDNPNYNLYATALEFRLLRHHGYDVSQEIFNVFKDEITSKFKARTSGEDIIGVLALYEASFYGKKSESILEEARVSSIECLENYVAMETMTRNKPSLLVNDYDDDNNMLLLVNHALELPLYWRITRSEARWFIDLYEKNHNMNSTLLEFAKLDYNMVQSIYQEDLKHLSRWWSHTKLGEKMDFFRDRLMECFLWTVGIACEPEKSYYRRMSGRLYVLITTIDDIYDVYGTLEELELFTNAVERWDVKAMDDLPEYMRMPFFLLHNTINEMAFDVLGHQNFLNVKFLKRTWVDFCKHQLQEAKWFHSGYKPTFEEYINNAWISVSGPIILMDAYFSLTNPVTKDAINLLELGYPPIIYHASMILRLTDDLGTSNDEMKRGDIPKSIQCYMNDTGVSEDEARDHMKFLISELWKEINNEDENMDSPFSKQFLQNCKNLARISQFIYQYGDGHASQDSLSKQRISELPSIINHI

CC(C)=CCC/C(C)=C/COP(=O)(O)OP(=O)(O)O [GPP, geranyl diphosphate]
Km (CsTPS12PK): 41.8 ± 8.29 µM | Km (CsTPS13PK): 13 ± 1.23 µM

B1: CsTPS20CT (Cannabis sativa) (protein)
chain: MSNIQVLASSQLSDKIIARPTTKFHPSIWGDRFLHYNISEQDLVCKQEKVEELIQVVKKEILSSNHDQLKLIDNLQRLGLSYHFESEIEKLLEQLSITHHQNHHDLHDASLWFRLLRQHGFNVSSSIFEKFKDEEGNFKESLITDVPGLLSLYEASHLSYVGESILDEALAFTTTHLKAIVANSKDHPLSHQISIVLHRPLRKTIERLHARFYISIYEKDASHNKLLLELAKLDFNLLQCFHKKELSEITRWWKEHEFAKKFPFARDRMVELYFWILGVYYEPKYSRARKLLTKVIALTSITDDIYDAYGTIDELQLLTKAIQRWDINCMDKLKQEYLKTYYKVMLDSYEEFEKELKKEELYKLEYAKEEMKRIIGGYFEEARWLNEGYFPSFDEHLRVSYVSSGNVLLIATSFVGMHDVVTHETLDWLSKDPKIVSASTLLSRFMDDIGSRKFEQKRNHIPSTVDCYMKQYGVSEEEAIKELNKRVDTHWKEINEDFIRPAVVPFPILVRVLNFTKIVDLLYKEGDDQYTNVGKVLKESIAALLIDSIPL
notes: E. coli BL21(DE3); monomer
Km [1]: 16.86 ± 6.42 µM

B2: CsTPS3FN (Cannabis sativa) (protein)
chain: RSANYEPPIWSFDYIQSLSTQYKGESYTRQLNKLKKEVKRMLLRMEINSLALLELIDTLQRLGISYHFKNEINTILKKKYNDNYINNNIITNPNYNNLYATALEFRLLRQHGYTVPQEIFNAFKDKRGKFKTSLSDDIMGVLCLYEASFYAMKHENILEEARIFSTKCLKKYMEKIENEEEKKILLLNDNNINSNLLLINHAFELPLHWRITRSEARWFIDEIYEKKQDMNSTLFEFAKLDFNIVQSTHQEDLQHLSRWWRDCKLGGKLNFARDRLMEAFLWDVGLKFEGEFSYFRRTNARLFVLITIIDDIYDVYGTLEELELFTSAVERWDVKLINELPDYMKMPFFVLHNTINEMGFDVLVEQNFVNIEYLKKSWVDLCKCYLQEAKWYYSGYQPTLEEYTELGWLSIGASVILMHAYFCFTNPITKQDLKSLQLQHHYPNIIKQACLITRLADDLGTSSDELNRGDVPKSIQCYMYDNNATEDEAREHIKFLISETWKDMNKKDEDESCLSENFVEVCKNMARTALFIYENGDGHGSQNSLSKERISTLIITPINIPK
notes: E. coli BL21(DE3); monomer
Km [2]: 4.569 ± 0.411 µM

B3: CsTPS1SK (Cannabis sativa) (protein)
chain: RSANYGPPIWSFDFVQSLPIQYKGESYTSRLNKLEKDVKRMLIGVENSLAQLELIDTIQRLGISYRFENEIISILKEKFTNNNNNPNPINYDLYATALQFRLLRQYGFEVPQEIFNNFKNHKTGEFKANISNDIMGALGLYEASFHGKKGESILEEARIFTTKCLKKYKLMSSSNNNNMTLISLLVNHALEMPLQWRITRSEAKWFIEEIYERKQDMNPTLLEFAKLDFNMLQSTYQEELKVLSRWWKDSKLGEKLPFVRDRLVECFLWQVGVRFEPQFSYFRIMDTKLYVLLTIIDDMHDIYGTLEELQLFTNALQRWDLKELDKLPDYMKTAFYFTYNFTNELAFDVLQEHGFVHIEYFKKLMVELCKHHLQEAKWFYSGYKPTLQEYVENGWLSVGGQVILMHAYFAFTNPVTKEALECLKDGHPNIVRHASIILRLADDLGTLSDELKRGDVPKSIQCYMHDTGASEDEAREHIKYLISESWKEMNNEDGNINSFFSNEFVQVKQNLGRASQMIYQYGDGHASQNNLSKERVLGLIITPIPM
notes: E. coli BL21(DE3); monomer
Km [3]: 7.809 ± 0.678 µM

B4: CsTPS16CC (Cannabis sativa) (protein)
chain: MSSQVLASSQKNDKTQNIIRPTTKFHPPIWGDRFLHYNISEQELEYKEGQVEELKEVVRKEIFHGNNKRNIINVSKQLKLIDDVERLGLSYHFESEIEKKLQHIYEITTNNIDHQDQHYYYSNHDEDLHDVSIRFRLLRQHGFNISSNIFEKFKDESGKFKESLKSDIEGMLSLYEASYLSYVEENILDEALAFTTTNLKLVANKKEHPLSHEISLALYRPLRKTLVRLYARHYISIYEKQPSHNKVLLQFAKLDFNLLQSLHKKELSEISRWWKELDLANKLPFARNRIVELYLWILGVFHEPQFSLARKILIKAISMASVADDIYDAYGTFEELELLTEAILRWDISFIDKLSPDYLKTYYKVFLNSYEECEKDLKKEERYKLHYAKESMKKLIQAYFHEAQWLNQGHFPSFDEHLKVSFVSSGYPMLIETSFVGMQDVKTNQVFEWLSTQPKIFRACTIISRFMDDLVSRKFEQERNHVPSTVDCYMKQYGVSEQEACDELNKQVVNLWKEINQEFLRPTSMPSSILVRILNFTKVLDIIYKEGDGYTHVGKLVKDSVAALLIDPIPL
notes: E. coli BL21(DE3); monomer
Km [4]: 38.43 ± 2.83 µM

B5: CsTPS5FN (Cannabis sativa) (protein)
chain: MSLSGLISTTTFKEQPAIVRRSGNYKPPLWDAHFIQSLQVIYTEESYGKRINELKEDVRRILEKEAENPLVKLEQINDLSRLGISYHFEDQIKAILNLTYNNNNALWKKDNLYATALHFKLLRQYGFNPVSSEIFNAFKDEKKEFKESLSKDVKGMVCLYEASFYSFRGEPILDEARDFTTKHLKQYLMMTRQGQNVDHDDDNDLMVKLVEHALELPVHWRMKRLEARWFIDMYAEMSHHHHMNSTFLQLAKLDFNVVQSTYQEDLKHVVRWWKTTSLGERLPFARDRIVEIFLWSVGLKFEPQFRYCRKMLTKIGQLVTTMDDIFDVYGTLDELSLFQHALGRWDINTIDQLPDYMKIFFLATYNVVNEMAYDVLKQNGILIIKYLKKTWTDLCKCYMLEANWYHSGYTPSLEEYIKNGWISIAEPLILVNLYCLITNPIKEDDIDCLLQYPTFIRISGIIARLVDDLGTSSDELKRGDNPKSIQCYMKENGICDEKNGREHIRNLISETWKEMNEARVGESPFSQAFIETAIDFVRTAMMIYQKEQDGVGTNIDHYTKDGIISLFFTSIPI
notes: E. coli BL21(DE3); monomer
Km [5]: 23.3 ± 1.34 µM
